Drawing on patent US20200340016, this text covers activity for 9 substances.

Common to all, as to assay: cell_activity
Data set [1] concerns ZFN pair SBS51857-ELD / SBS51949-KKR (BCL11A) (artificial).
Data set [2] concerns ZFN pair SBS51857-ELD / SBS51949-KKR R416S R416S (FokI of 51949) (artificial).
The test system of data set [3] is ZFN pair SBS51857-ELD / SBS51949-KKR K525S K525S (FokI of 51949) (artificial). The conditions noted are these: 60 ug/mL each mRNA.
The test system of data set [4] is ZFN pair SBS63014 / SBS65526 (3x R-5Q / 4x R-5Q + FokI R416S) three and four finger R(-5)Q; FokI R416S in 65526 (artificial). The conditions noted are these: 60 ug dose.
Data set [5] relates to ZFN pair SBS63014 / SBS65527 (3x R-5Q / 5x R-5Q + FokI R416S) three and five finger R(-5)Q; FokI R416S in 65527 (artificial). The conditions noted are these: 60 ug dose; no evidence of cleavage.
The subject of data set [6] is ZFN pair SBS51857-ELD / SBS51949-KKR R447S R447S (FokI of 51949) (artificial). The conditions noted are these: CD34+ cells, near background.
The subject of data set [7] is ZFN pair SBS63014 / SBS65721 (3x R-5Q / 3x R-5Q + FokI R416S) three finger R(-5)Q in each ZFN; FokI R416S in 65721 (artificial). The conditions noted are these: 60 ug dose.
The subject of data set [8] is ZFN pair SBS51857-ELD / SBS51949-KKR K448S K448S (FokI of 51949) (artificial). As to conditions: 60 ug/mL each mRNA.
For data set [9], the system named is ZFN pair 52742-ELD / 52774-KKR R416S R416S (FokI of 52774) (artificial). The conditions noted are these: 400 ng mRNA.
The subject of data set [10] is ZFN pair 52742-F1RQ;F3RQ;F5RQ / 52774 R(-5)Q in F1, F3 and F5 of 52742 (artificial). As to conditions: 6 ug dose.
The test system of data set [11] is ZFN pair 52742-ELD R447S / 52774-KKR R447S (FokI of 52742) (artificial). As to conditions: 400 ng mRNA.
Data set [12] relates to ZFN pair 52742-ELD / 52774-KKR K525S K525S (FokI of 52774) (artificial). The conditions noted are these: 400 ng mRNA.
Data set [13] relates to ZFN pair 52742-ELD / 52774-KKR K387S K387S (FokI of 52774) (artificial). As to conditions: 400 ng mRNA.
Data set [14] concerns ZFN pair SBS52742-ELD / SBS52774-KKR (TRAC) (artificial).
The subject of data set [15] is ZFN pair 52742-ELD R422S / 52774-KKR R422S (FokI of 52742) (artificial). The conditions noted are these: 400 ng mRNA.
For data set [16], the system named is ZFN pair 30035 / 30054 ELD_KKR_K525P K525P (FokI, both ZFNs) (artificial).
Data set [17] concerns ZFN pair 30035 / 30054 ELD_KKR_K525A K525A (FokI, both ZFNs) (artificial).
The subject of data set [18] is ZFN pair 30035 / 30054 ELD_KKR_I479T I479T (FokI, both ZFNs) (artificial).
The test system of data set [19] is ZFN pair 30035 / 30054 ELD_KKR_R416E R416E (FokI, both ZFNs) (artificial).
Data set [20] has as its system ZFN pair 30035 / 30054 ELD_KKR_R416D R416D (FokI, both ZFNs) (artificial).
For data set [21], the system named is ZFN pair 30035 / 30054 (AAVS1) (artificial).
For data set [22], the system named is ZFN pair 30035 / 30054 ELD_KKR_Q481E Q481E (FokI, both ZFNs) (artificial).
[23] abbreviates: CD34+ cells, 2 ug mRNA each ZFN.

“CCTACCCCCACCACCTCACCTTCCCTCAGCCTTGTGTTTCAGCCCCAGTTAGCTGCCCTTAGTTGCTGATGTATTG (double strand) [off-target GJZEIYTO (OT2)]”: the activity was found to be 2.81 % indels in data set [1] (60 ug/mL each mRNA) and 0.31 % indels in data set [2] (60 ug/mL each mRNA).
In the case of “CTTCCTGCGGGGTTTTGTGCAAATAACCCATGCTCGGGAGCGAGGCCCTGGGAAGGAGTATCTCGCTTCTTTGGGT (double strand) [off-target NIFMAEVG (OT1)]”, the activity in data set [3] (parent 21.96) is 0.89 % indels; in [4], 0.17 % indels; in data set [5], 0.03 % indels; in data set [6], 0.05 % indels; in data set [7] (parent 28.0) it was 0.55 % indels; in [1] (setting [23]), 9.04 % indels. The activity in [8] (parent 21.96) turned out to be 8.9 % indels; in [2] (setting [23]) it was 0.75 % indels.
Regarding “CCATATGCAGAAAACAGAAACTGTACCCCTTCCTTACACC (double strand) [off-target XSKWTVWD (OT16)]”, the activity stood at 0.74 % indels in data set [9]; 1.43 % indels in data set [10] (parent 19.16); 0.32 % indels in data set [11]; 0.96 % indels in [12]; 3.12 % indels in data set [13]; 7.39 % indels in data set [14] (400 ng mRNA each ZFN). The activity in data set [15] worked out at 1.18 % indels.
On to “GACTCATTCATCCACTCATTCTGAGCACTTGCTGCACACTAGGCCCTGGGCTGGGGCTTCAGCCCAGGAGTTCACT (double strand) [off-target ZJCRPAXW (OT4)]”, for which the activity in data set [1] (60 ug/mL each mRNA) was 1.12 % indels; in data set [2] (60 ug/mL each mRNA), 0.65 % indels.
AAVS1 intended target: the activity is 0.01 % indels in [16]; 73.8 % indels in data set [17]; 52.5 % indels in [18]; 91.1 % indels in [19]; 70.6 % indels in data set [20]; 57.8 % indels in data set [21]. Moreover, the activity in data set [22] worked out at 69.9 % indels.
Turning to “CCGGAGAGAAGGCTCCGGTTCAGCACTGAGATCAGGACGG (double strand) [off-target KXWACMTR (OT3)]”, the activity in data set [10] (parent 1.59) was 0.19 % indels; in [14] (6 ug dose) it was 1.59 % indels.
On to “TCAGTGATTGGGTTCCGAATCCTCCTCCTGAAAGTGGCCG (double strand) [TRAC intended target JBSCKVMP]”, for which the activity in data set [9] worked out at 87.1 % indels; in [10] (parent 62.59), 70 % indels; in [11] it was 70.3 % indels; in data set [12], 88.3 % indels; in [13] it was 89.1 % indels; in [14] (400 ng mRNA each ZFN), 90.7 % indels. Moreover, the activity in data set [15] was determined as 89 % indels.
Take “TCCTCCATGCTCAGAAAGCCTTTCTTGGAGCCAGGCACACAGGAAATGTTAGCTAGTTAGCATTGGCTCTAATACT (double strand) [off-target PEVYOHIU (OT3)]”: the activity in data set [3] was determined as 0.13 % indels; in data set [4] (no evidence of cleavage), 0.02 % indels; in data set [5] it was 0.02 % indels; in [6] it was 0.03 % indels; in data set [7] (parent 4.77), 0.04 % indels; in [1] (setting [23]) it was 0.65 % indels. For the same substance, the activity turned out to be 4.4 % indels in data set [8] and 0.08 % indels in [2] (setting [23]).
Consider “TGGCCCTTTGCAGAAAAGGTTGTTGAACCCTACCGTAAAC (double strand) [off-target XVFENVRX (OT11)]”, for which the activity in data set [9] was determined as 0.93 % indels; in data set [10] (parent 4.32) it was 0.47 % indels; in data set [11], 0.14 % indels; in data set [12] it was 0.79 % indels; in [13], 3.27 % indels; in data set [14] (400 ng mRNA each ZFN), 5.82 % indels. Also, the activity in data set [15] was 1.09 % indels.
